{"source": "patent US8367612B2", "about": "“Compositions containing, methods involving, and uses of non-natural amino acids and polypeptides” (Ambrx, Inc., priority 2004, dated 2013)", "data": [{"experiment": "Pharmacokinetic studies, single s.c. dose in rats, plasma concentration by growth hormone ELISA", "assay_type": "in vivo", "details": "single-dose 1 mg/kg bolus s.c., normal male Sprague-Dawley rats; average", "procedure": "Pharmacokinetic properties of PEG-modified growth hormone compounds were compared to each other and to nonPEGylated growth hormone in male Sprague-Dawley rats (261-425 g) obtained from Charles River Laboratories. Catheters were surgically installed into the carotid artery for blood collection. Following successful catheter installation, animals were assigned to treatment groups (three to six per group) prior to dosing. Animals were dosed subcutaneously with 1 mg/kg of compound in a dose volume of 0.41-0.55 ml/kg. Blood samples were collected at various time points via the indwelling catheter and into EDTA-coated microfuge tubes. Plasma was collected after centrifugation, and stored at −80° C. until analysis. Compound concentrations were measured using antibody sandwich growth hormone ELISA kits from either BioSource International (Camarillo, Calif.) or Diagnostic Systems Laboratories (Webster, Tex.). Concentrations were calculated using standards corresponding to the analog that was dosed. Pharmacokinetic parameters were estimated using the modeling program WinNonlin (Pharsight, version 4.1). Noncompartmental analysis with linear-up/log-down trapezoidal integration was used, and concentration data was uniformly weighted.\nPlasma concentrations were obtained at regular intervals following a single subcutaneous dose in rats. […] Plasma samples were taken over the regular time intervals and assayed for injected compound as described. […] Concentration vs time curves were evaluated by noncompartmental analysis (Pharsight, version 4.1). Values shown are averages (+/− standard deviation). Cmax: maximum concentration; terminal t1/2: terminal half-life; AUC0→inf: area under the concentration-time curve extrapolated to infinity; MRT: mean residence time; Cl/f: apparent total, plasma clearance; Vz/f: apparent volume of distribution during terminal phase.", "units": {"Cl/f": "mL/min/kg", "MRT": "h", "Terminal t1/2": "h"}, "values": [{"substance": "30KPEG-pAF35(his)hGH: \"hGH polypeptides comprising p-acetyl-phenylalanine covalently-linked to 30 kDa PEG at positions 35 and 92\" (position 35, His-tagged)", "AUC 0->inf": "39,918 ng × hr/ml", "Cl/f": 0.583, "Cmax": "1,885 ng/ml", "MRT": 19.16, "Terminal t1/2": 4.85}, {"substance": "30KPEG-pAF131(his)hGH: \"His-tagged hGH polypeptide comprising non-natural amino acid p-acetyl-phenylalanine covalently linked to 30 kDa PEG at each of six different positions\"", "AUC 0->inf": "6,978 ng × hr/ml", "Cl/f": 2.68, "Cmax": "497 ng/mL", "MRT": 14.28, "Terminal t1/2": 4.41}, {"substance": "30KPEG-pAF134(his)hGH: \"His-tagged hGH polypeptide comprising non-natural amino acid p-acetyl-phenylalanine covalently linked to 30 kDa PEG at each of six different positions\"", "AUC 0->inf": "7,304 ng × hr/ml", "Cl/f": 2.52, "Cmax": "566 ng/mL", "MRT": 12.15, "Terminal t1/2": 4.36}, {"substance": "30KPEG-pAF143(his)hGH: \"His-tagged hGH polypeptide comprising non-natural amino acid p-acetyl-phenylalanine covalently linked to 30 kDa PEG at each of six different positions\"", "AUC 0->inf": "17,494 ng × hr/ml", "Cl/f": 0.983, "Cmax": "803 ng/mL", "MRT": 18.83, "Terminal t1/2": 6.02}, {"substance": "30KPEG-pAF145(his)hGH: \"His-tagged hGH polypeptide comprising non-natural amino acid p-acetyl-phenylalanine covalently linked to 30 kDa PEG at each of six different positions\"", "AUC 0->inf": "13,162 ng × hr/ml", "Cl/f": 1.47, "Cmax": "634 ng/mL", "MRT": 17.82, "Terminal t1/2": 5.87}]}]}
